# In the nanobody polyreactivity screen of Harvey et al. (2022):
# Experiment: yeast display, Sf9 membrane polyspecificity reagent, FACS + sequencing; frameworks hold sequencing errors
# Outline: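 Using colony PCR, genes from sorted yeast display clones were amplified, then sequenced on MiSeq at 2 × 250 and filtered by CDR length. The clones had been stained with 10% biotinylated, detergent-solubilized Sf9 membrane reagent for 1 hour at 4 °C and sorted by FACS into low and high (top ~1%) gates on anti-HA and streptavidin fluorescence. Polyreactivity labels come from the gate of origin.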
sequence,measurement,value
QVQLVESGGGLVQAGGSLRLSCAASGSTVRRYAMGWYRQAPGKERELVATISSGGRTNYADSVKGRFTISRDNAKNTVYLEMNSLKPEDTGVYYCAARPYFYERSAGYYWGQGTQVTVSS,polyreactivity (PSR sort gate),high polyreactivity
QVQLVESGGGLVQAGGSLRLSCAASGSTVRYNAMGWYRQARGIERELVAAISYGSSTNYADSVKGRFTISRDNAKNTVFLQMNSLKPEDTAVYYCAAQPGYYDDFYYWGHGTQVTVSS,polyreactivity (PSR sort gate),low polyreactivity
QVQLVESGGGLVQAGGSLRLSCAASGSTVYASVMGWSRQAPGKARELVAAITSAGSTDYADSVKGRFTISRDNAKNTVYLQMNSRKPEDTAVYYCAADAYTDSPYYKYDYWGQGTQVTVSS,polyreactivity (PSR sort gate),low polyreactivity
QVQLVESGGGLVQAGGSLRLSCAASGSTWVYAMGWYRQAPGKERELFAAITVSGGSTYYADSVKGRFTISRDNAKNTVYLQMNSQKPEDPAVYYCAAYDSYRKFKYLGQGTQVTVSS,polyreactivity (PSR sort gate),high polyreactivity
QVQLVESGGGLVQAGGSLRLSCAASGSTYAAKTMGWYRQAPGKERELVAAITVRGGSTYYADSVKGRFTISRDNAKNTVYLQMNSLKPEDTAVYYCATRHPARRDYWGQGTQVTVSS,polyreactivity (PSR sort gate),low polyreactivity
QVQLVESGGGLVQAGGSLRLSCAASGSTYAVNVMGWYRQAPGKERELVATITYRDGRTYYADSVKGRFTISRDNAKNTVYLQMNSLKPEDTAVYYCAADAYRAQGDYWGQGTQVTVSS,polyreactivity (PSR sort gate),low polyreactivity
QVQLVESGGGLVQAGGSLRLSCAASGSTYEIYAMGWYRQAPGKDRELVAAISSGGSTNYADSVKGRFTISRDNAKNTVYLQMNSLKPEDTAVYYCVYAIQFDYWGQGTQVTVSS,polyreactivity (PSR sort gate),low polyreactivity
QVQLVESGGGLVQAGGSLRLSCAASGSTYENAMGWYRQAPGKERELVAVISRSGGSTYYADSVKGRFTISRDNAKNTVYLQMNSLNPEDTAVYYCATVYSAWSWVHGYYVAMDYWGQGTQVTVSS,polyreactivity (PSR sort gate),high polyreactivity
QVQLVESGGGLVQAGGSLRLSCAASGSTYGRNARGWYRQAPGKERELVAAISSGGRTYYADSVKGRFTISRDNAKNTVYLQMNSLKPEDTAVYYCARDDYGTLVQLYGRGFNYWGQGTQVTVSS,polyreactivity (PSR sort gate),low polyreactivity
QVQLVESGGGLVQAGGSLRLSCAASGSTYNAMGWYRQAPGKEREFVAAISWGGGSTYYADSVKGRFTISRDNAKNTVYLQMNSLKPEDTAVYYCAKTPNYRIRHDYWGQGTQVTVSS,polyreactivity (PSR sort gate),low polyreactivity
QVQLVESGGGLVQAGGSLRLSCAASGSTYPSYAMGWYRQAPGKERELVAAINSGGSTNYADSVKGRFTISRDNAKNTVYLQMNSLKPEDTAVYYCAASVYGQHAGPGRWYTFYYWGQGTQVTVSS,polyreactivity (PSR sort gate),low polyreactivity
QVQLVESGGGLVQAGGSLRLSCAASGSTYVSNAMGWYRQAPGKERELVAAISKSGGSTYYGDSVKGRFSISRDTAKNTVYLQMNSLKPEDTAVYYCAASPARYWYGGKEYDYWGQGTQVTVSS,polyreactivity (PSR sort gate),high polyreactivity
QVQLVESGGGLVQAGGSLRLSCAASGSTYYNAMGWYRQAPRKERELVAAIRFRSGSTYYADSVKGRFTISRDNAKITVYFQMNSLKPEDTAVYYCAADNKRSWRYAYNYWGQGTQVTVSS,polyreactivity (PSR sort gate),high polyreactivity
QVQLVESGGGLVQAGGSLRLSCAASGSTYYRYTMGSYRQAPGKERELLAAITSGGGTDYADSVKGRFTISRDNAKNTVYLQMNSLKPEDTAVYYCAAEGSWYSYPDYDYWGQGTQVTVSS,polyreactivity (PSR sort gate),low polyreactivity
QVQLVESGGGLVQAGGSLRLSCAASGSTYYTYAMGWYRQAPGKERELVAAITYSDGDTYYADSVKGRFTISRDNAKHTVYLQMNSLKPEDTAVYYCAADYQGQPGTGNLEYWGQGTQVTVSS,polyreactivity (PSR sort gate),low polyreactivity
QVQLVESGGGLVQAGGSLRLSCAASGSTYYYNAMGWYRQAPGKERELVAAIRTSGGRTYYADSVKGRFTISRDNAKNTVFLQMMSLKPEDTAVYFCADDGTDVHYTYDYWGQGTLVTVSS,polyreactivity (PSR sort gate),low polyreactivity
QVQLVESGGGLVQAGGSLRLSCAASGSYLRYYAMGWYRQAAGKERELVAAISRSVTNTYYADSVKGRFTISRDYAKNTVYLQMNSLKPEDTAVDYCARVQYVRNVQYRYGGWYTRYYWGQGTQVTVSS,polyreactivity (PSR sort gate),high polyreactivity
QVQLVESGGGLVQAGGSLRLSCAASGSYLRYYAMGWYRQAPGKERELVAAISRSGTNTYYADSVKGRFTISRDNAKNTVYLQMNSLKPEDTAVYYCAARSWKRRVGRDYWGQGTQVTVSS,polyreactivity (PSR sort gate),high polyreactivity
QVQLVESGGGLVQAGGSLRLSCAASGTFAGNAMGWYRQAPGKERELVAAINSGGSTNYADSVKGRFTISRDNAKNTVYLQMKSLKPEDTAVYYCAADSVWSPVDYDYWGQGTQVTVSS,polyreactivity (PSR sort gate),low polyreactivity
QVQLVESGGGLVQAGGSLRLSCAASGTFFGYAMGWYRQAPGKERELVAAITSGGSTYYADSVKGRFTISRDNAKNTVYLQMNSLKPEDTAVYYCARVYSRWSYRYDYWGQGTQVTVSS,polyreactivity (PSR sort gate),low polyreactivity
QVQLVESGGGLVQAGGSLRLSCAASGTFQSNAMGRYRPAPGKERELVAAITSGGSTNYADSVKGRFTISRDNAKNTVYLQMNSLKPEDTAVYYCAAVRRYRASRGSLYYYWGLGTQVTVSS,polyreactivity (PSR sort gate),high polyreactivity
QVQLVESGGGLVQAGGSLRLSCAASGTFSQYAMGWYRQAPGKERELVAAISQGGGSTYYADSVKGRFTISRDNAKNTVYLQMNSLKPEDTAVYYCARSRSYWGIVYGRYDYWGQGTQVTVSS,polyreactivity (PSR sort gate),high polyreactivity
QVQLVESGGGLVQAGGSLRLSCAASGTFVTYMGWYRQAPGKERELVAAIRNGGSTNYADSVKGRFTISRDKAKNTVYLQMNSLKPEDTAVYYCAADRAGSIMNYWGQGTQVTVSS,polyreactivity (PSR sort gate),low polyreactivity
QVQLVESGGGLVQAGGSLRLSCAASGTFYGNTMGWYRRPPGKERELVAVISIDGSTNYADSVKGRFTISRDNAKNTVYLQMNSLKPEDTAVYYCAADYWRQFRDYDYWGQGTQVTVSS,polyreactivity (PSR sort gate),low polyreactivity
QVQLVESGGGLVQAGGSLRLSCAASGTFYWNVMGWYRQAPGKEREFVASITLSGTSTYYADSVKVRFTISRDNAKNTVYLQMNSLKPEDTAVYYCAVAARWPAPVPHYYYWGQGTQVTVSS,polyreactivity (PSR sort gate),low polyreactivity
QVQLVESGGGLVQAGGSLRLSCAASGTIFGSNAMGWYRQAPGKERELVAAISWRGGRTYYADSVKGRFSISRDYAKNTVYLQMYSLKPVETAVYYCAKRWRRRFVDVWSLYDYWGQGTQVTVSS,polyreactivity (PSR sort gate),low polyreactivity
QVQLVESGGGLVQAGGSLRLSCAASGTIFKSNSMGWYRQAPGKERELVAAISNGGITNYADSVKGRFTISRDNAKNTVYLQMNSLKPEDTAVYYCATSDVREIWVDYWGQGTQVTVSS,polyreactivity (PSR sort gate),low polyreactivity
QVQLVESGGGLVQAGGSLRLSCAASGTIFLANAMGWYRQAPEKERELVAAINSGDNSYYADSVKGRFTISRDNAKITVYLQINSLKPEDTAVYYCAAEYTGYFYAYEYWGQGSQVTVSS,polyreactivity (PSR sort gate),high polyreactivity
QVQLVESGGGLVQAGGSLRLSCAASGTIFRGNAMGWYRQAPGTERELVAAINKSGGSTYYADSVKGRFTISRDNAKNTVYLQMNSLKPEDTAVYYCAAVYKRLQPYGYWGQGTQVTVSS,polyreactivity (PSR sort gate),high polyreactivity
QVQLVESGGGLVQAGGSLRLSCAASGTIFRRSAMGWDRQAPGKERELVATITSTDSTNYADSVKGRFTISRDNAKNTVYLQMNSLKPEDTAVYYCAKRPYHYRRNSEYYYWGQGTQVTVSS,polyreactivity (PSR sort gate),low polyreactivity
QVQLVESGGGLVQAGGSLRLSCAASGTIFSLYAMGWYRQAHGKERELVAAISGSGSSTHYADSVKGRFTISRDNAKNTVYLQMNSLKPEDSAVYYCAATYWTNSYYYWGQGTQVTVSS,polyreactivity (PSR sort gate),low polyreactivity
QVQLVESGGGLVQAGGSLRLSCAASGTIFTINAMGWYRQAAGKERELVAAISWSGAHTYYADSVKGRFTISRDNAKNTVFLQMNSLKPEDTAVYYCATGYNYLERNTGYFHRFDYWGQGTQVTVSS,polyreactivity (PSR sort gate),low polyreactivity
QVQLVESGGGLVQAGGSLRLSCAASGTIFVLYAMGWYRQAPGKERELVAAITTGGGTNYADSVKGRFTISRDNEKNTVYLQMNRLKPEDTAVYYCAADTGWYDDWTHDYWGQGTQVTVSS,polyreactivity (PSR sort gate),low polyreactivity
QVQLVESGGGLVQAGGSLRLSCAASGTIYVTNGMGWYRQAPGKERELVAVISWGGGNTYYADSVKRRFTISRDNAKNTVYLQMNILKPEDTAVYYCAADPISEFYWGVKDRYDYWGQGTQVTVSS,polyreactivity (PSR sort gate),low polyreactivity
QVQLVESGGGLVQAGGSLRLSCAASGTLSRYAMGWYIQAPGKERELVAAISWTGGSTYYADSVKGRFTISRDNAKYTVYLQMNSLKPEDTAVYYCNGAWRLRGDATYGYWGQGTQVTVSS,polyreactivity (PSR sort gate),high polyreactivity
QVQLVESGGGLVQAGGSLRLSCAASGTSGYYAMGWYRQAPGKERELVAGISIGGSTNYADSVKGRFTISRDNAKNTVYLQMNSLKPEDTAVYYCAVDGYVAFSPDRNNYWGQGTQVTLSS,polyreactivity (PSR sort gate),low polyreactivity
QVQLVESGGGLVQAGGSLRLSCAASGTTFDSYAMGWYRQAPGKERELVPAITSSASTNYADSVKGRFTISRDNAKNTVYLQMNSLKPEDNAVYYCYADAYRLSFGGFTSDDEFVYWGLGTQVTVSS,polyreactivity (PSR sort gate),high polyreactivity
QVQLVESGGGLVQAGGSLRLSCAASGTTFDVYAMGWSRQAPGKERELVAAITSGGTTNYADSVKGRFTISRDNAKNPVFFQMNSLKPEDTAVYYCAKDSRNVYWDYGYWGQGTQVSVSS,polyreactivity (PSR sort gate),low polyreactivity
QVQLVESGGGLVQAGGSLRLSCAASGTTFDVYAMGWYRQAPGKERELVAAISTRGTRTYYADSVKGRFTISRDNAKNTVYLQMNSLKPEETAVYYCAAYVYDGETVSRFDYWGQGTQVTVSS,polyreactivity (PSR sort gate),high polyreactivity
QVQLVESGGGLVQAGGSLRLSCAASGTTFFINDLGWYRQAPGKERELVAAISWSGDSTYYPDSVKGRFTISRDNAKNTVYLQMKSLKPEDTAVYYCAADWGFVQPGWSYNYWGQGTQVTVSS,polyreactivity (PSR sort gate),high polyreactivity
QVQLVESGGGLVQAGGSLRLSCAASGTTFFNNAMGWYRQAPGKERELVAAITSGRTYYADSVKGRFTISRDNAKNTVYLLMNSLKPEDTAVDYCAKDADQDADKPFQFTMDYWGQGTEVTVSS,polyreactivity (PSR sort gate),low polyreactivity
QVQLVESGGGLVQAGGSLRLSCAASGTTFILNAMGWYRQAPGKDRELVATISSSDTSTYYADSVKGRFTISRDNAKNTVYLQMNSLKPEDTAVYYCNADYYTTSYLQRVFHYGVEYDYWGQGTQVTVSS,polyreactivity (PSR sort gate),low polyreactivity
QVQLVESGGGLVQAGGSLRLSCAASGTTFNAYAMGWYRQAPGKDRELVAAISTSGGRTYYADSVKGRYTISRDNAKNTVYLQMNSLKPEDTAVNYCAAVLGRSPGLNYWGQGTQVTVSS,polyreactivity (PSR sort gate),high polyreactivity
